According to patent EP2848693A1, “Concatenation of halogenated alkenyl diphosphate derivatives” (LANXESS Deutschland GmbH, priority 2013, dated 2015):

Legend:
[1] = target: T1, E. coli Undecaprenyldiphosphatsynthase (EcUPPS) (Escherichia coli, UniProt P60472); test: MTP phosphate detection assay (diphosphate release, BIOMOL Green), substrate kinetics; assay type: biochemical; conditions: for rel. kcat Km^-1: relative to natural substrate FPP (100 %)
T1 construct: made in house; host or cells: E. coli
T1 sequence (P60472 1-253): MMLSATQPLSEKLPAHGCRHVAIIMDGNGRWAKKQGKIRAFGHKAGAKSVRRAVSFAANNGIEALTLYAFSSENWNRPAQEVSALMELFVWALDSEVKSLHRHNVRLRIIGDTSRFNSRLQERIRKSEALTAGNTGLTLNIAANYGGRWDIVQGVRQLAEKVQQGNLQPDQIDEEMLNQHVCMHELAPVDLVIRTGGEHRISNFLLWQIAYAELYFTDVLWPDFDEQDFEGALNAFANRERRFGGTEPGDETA
Procedure: (§1) Cis-Prenyltransferasen entlassen während der Reaktion Diphosphat nach jedem Kondensationsschritt. Dies ist der Ansatzpunkt, der gewählt wurde, um unabhängig von der Art des Produktes den Grundumsatz zu detektieren. […] Die Dreifachbestimmungen der Enzymreaktionen wurden mit 100 µL BIOMOL Green™ Detektionsreagenz gestoppt und nach weiteren 20 min in einem Mikrotiterplattenspektrophotometer bei 620 nm gemessen. Zur Kontrolle erfolgte für jede Substratkonzentration eine Messung mit denaturiertem Enzym zu den unterschiedlichen Zeitpunkten um Selbsthydrolyse der Substrate zu berücksichtigen. Zur Quantifizierung wurde eine Pi-Standardkurve in Doppelbestimmung mitgeführt. Die Verdünnung des KPi-Standards erfolgte in Assaypuffer, wurde mit 100 µL BIOMOL Green™ Detektionsreagenz nach Ablauf der Enzymreaktion in den Test-Wells detektiert und zeitgleich nach weiteren 20 min bei 620 nm gemessen. Eine lineare Beziehung zwischen A620 nm und Pi-Konzentration ermöglichte eine Quantifizierung zwischen 80 µM-0 µM Pi.
(§2) Die Bestimmung der FPP-Kinetiken der EcUPPS sowie der ThkCPT erfolgte unter analogen Bedingungen der Bestimmung von IPP. […] Die Enzymreaktion wurde nach 60 s, 120 s, 180 s, 300 s, 600 s, 900 s oder 1200 s durch Zugabe von 100 µL BIOMOL Green™ Detektionsreagenz gestoppt und wie oben beschrieben gemessen.
(§3) Die Assaybedingungen wurden wie in Beispiel 3 beschriebenen gewählt. […] Variation von 500 - 0 µM im Fall der Elongationssubstrate erfolgte konstant mit 10 µM FPP (jedes Homoallyldiphosphat möglich).
(§4) Zur Berechnung der Umsatzraten in nkat·mg^-1 wurde verwendet: ν0 = ((A620-ABlank)⋅1000)/(2⋅m⋅t⋅[E]) [formula] v0 Anfangsgeschwindigkeit der Diphosphathydrolyse (nkat·mg^-1) A620 Absorption bei 620 nm ABlank Absorption der Kontrolle bei 620 nm m Anstieg der Phosphatstandardkurve (µM^-1) t Dauer der Enzymreaktion (s) [E] Enzymkonzentration (mg·L^-1)
(§5) Die Auswertung erfolgte durch nicht-lineare Regression nach der Hill-Gleichung mit Sigma-Plot 11. […] Substratkonzentration (µM) h Hill-Koeffizient

EcUPPS = target: T2, EcUPPS (Escherichia coli, UniProt P60472); test: Product chain length by HPLC with fluorescent starter substrate 110; assay type: biochemical; conditions: 10 µM EcUPPS, 110 as starter substrate, HPLC of hydrolysed products
T2 construct: made in house; host or cells: E. coli
Procedure: (§6) Zur Bestimmung der Produktkettenlängen wurden 500 µL Enzymassays in MS-Gläschen durchgeführt. […] Die Extraktion der Polyprenyldiphosphate erfolgte mit 500 µL 1-Butanol. Die Butanolphase wurde in ein neues Glas überführt und unter Stickstoffstrom von dem Lösungsmittel befreit. Die Hydrolyse der Diphosphate zum Polyprenol erfolgte durch Zugabe von 200 µL Hydrolysepuffer (20% Isopropanol, 4,4 Units/mL saure Phophatase aus Kartoffeln, 0,1 % Triton X-100, 50 mM Natriumacetat (pH 4,7)) und wurde über Nacht bei 37 °C inkubiert. Die Polyprenole wurden mit 500 µL nHexan extrahiert und zur weiteren DC- oder HPLC-Analyse vorbereitet. Für DC-Experimente und LC/ESI-MS-Analysen wurde die nHexan-Phase in ein neues Glas überführt, das Lösungsmittel abgedampft und die Produkte erneut in 100 µL nHexan resuspendiert um eine Aufkonzentrierung zu erreichen. Für HPLC-Analysen mit 110 ((2E,6E)-8-O-(N-methyl-2-aminobenzoyl)-3,7-dimethyl-2,6-octandien-1-diphosphat) als Startersubstrat wurde die nHexan-Phase 1:3 verdünnt in das HPLC-System mittels Autosampler injiziert.
Die HPLC-Analyse der Polyprenole erfolgte an einer Anlage von Merck HITACHI D-7000, wobei als stationäre Phase eine YMC-ODS AQ (150 x 4 mm, 5 µm; YMC Europe GmbH, Dinslaken) Säule verwendet wurde. Die Elution erfolgte mit 1 mL·min^-1 und die Detektion bei 210 nm mit einem UV-VIS Detektor: Merck HITACHI L-7420. […]

ThkCPT = target: T3, ThkCPT (Thermococcus kodakarensis, UniProt Q5JGE1); test: as above; assay type: biochemical, Thermococcus kodakaraensis
T3 construct: made in house; host or cells: E. coli
T3 sequence (Q5JGE1 1-264): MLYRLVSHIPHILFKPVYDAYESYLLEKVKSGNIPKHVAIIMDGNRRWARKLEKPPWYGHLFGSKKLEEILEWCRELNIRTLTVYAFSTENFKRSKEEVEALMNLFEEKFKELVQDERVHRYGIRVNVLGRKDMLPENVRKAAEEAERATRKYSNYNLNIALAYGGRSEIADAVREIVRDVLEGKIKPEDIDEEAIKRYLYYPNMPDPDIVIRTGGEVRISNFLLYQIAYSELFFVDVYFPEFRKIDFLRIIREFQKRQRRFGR
Procedure: as §6
Die HPLC-Analyse der Polyprenole erfolgte an einer Anlage von Merck HITACHI D-7000, wobei als stationäre Phase eine YMC-ODS AQ (150 x 4 mm, 5 µm; YMC Europe GmbH, Dinslaken) Säule verwendet wurde. Die Elution erfolgte mit 1 mL·min^-1 und die Detektion bei 210 nm mit einem UV-VIS Detektor: Merck HITACHI L-7420. Das Injektionsvolumen betrug dabei 5 µL. Die mobile Phase setzte sich aus Laufmittel A (MeOH/H2O/Isopropanol 12:1:8 (v/v/v)) und Laufmittel B (nHexan/Isopropanol 7:3 (v/v)) zusammen. Die Probenaufgabe erfolgte mittels Autosampler (Merck HITACHI L-7250). [drawing 35]
Zur selektiven und vor allem sensitiven Detektion von Polyprenolen kann ein alternatives, fluoreszierendes Startersubstrat verwendet werden, (2E,6E)-8-O-(N-methyl-2-aminobenzoyl)-3,7-dimethyl-2,6-octandien-1-diphosphat (110). Die Analyse erfolgte wie in Beispiel 6 beschrieben. Dabei wurden 3 µL pro Probe injiziert und die Detektion erfolgte über Fluoreszenz: Ex 352 nm / Em 420 nm wobei das Gerät Merck HITACHI L-7480 als Fluoreszenzdetektor verwendet wurde. […]

[2] = target: T4, Thermococcus kodakaraensis cis-Prenyltransferase (ThkCPT) (Thermococcus kodakarensis, UniProt Q5JGE1); test: MTP phosphate detection assay (diphosphate release, BIOMOL Green), substrate kinetics; assay type: biochemical; conditions: elongation substrate varied, starter FPP 10 µM, room temperature
T4 construct: made in house; host or cells: E. coli
T4 sequence (Q5JGE1 1-264): T3 sequence (Q5JGE1 1-264)
Procedure: as §1, §2, §3, §4, §5

[3] = substrate: C=C(C)CCO[P@@](=O)(O)OP(=O)(O)O; test: purified protein, by the assay type; conditions: other: elongation substrate varied, starter FPP 10 µM, room temperature
[4] = substrate: C=C(Br)CCOP(=O)(O)OP(=O)(O)O; test: MTP phosphate detection assay (diphosphate release, BIOMOL Green), substrate kinetics; assay type: biochemical, Thermococcus kodakaraensis; conditions: other: elongation substrate varied, starter FPP 10 µM, room temperature
Procedure: as §1, §2, §3, §4, §5

[5] = substrate: C=C(Cl)CCOP(=O)(O)OP(=O)(O)O; test: as above; assay type: biochemical, Thermococcus kodakaraensis; conditions: other: elongation substrate varied, starter FPP 10 µM, room temperature
Procedure: as §1, §2, §3, §4, §5

[6] = substrate: CNc1ccccc1C(=O)OC/C(C)=C/CC/C(C)=C/COP(=O)(O)OP(=O)(O)O; test: as above; assay type: biochemical, Escherichia coli; conditions: other: starter substrate varied 80 - 0 µM, elongation substrate IPP constant 150 µM, 22°C
Procedure: as §1, §2, §3, §4, §5

[7] = substrate: C=C(C)CCO[P@@](=O)(O)OP(=O)(O)O; test: as above; assay type: biochemical, Escherichia coli; conditions: other: elongation substrate varied 500 - 0 µM, starter FPP constant 10 µM; 22.0 °C
Procedure: as §1, §2, §3, §4, §5

[8] = substrate: CC(C)=CCC/C(C)=C/CC/C(C)=C/CC/C(C)=C/COP(=O)(O)OP(=O)(O)O; test: as above; assay type: biochemical, Escherichia coli; conditions: other: starter substrate varied 80 - 0 µM, elongation substrate IPP constant 150 µM, 22°C
Procedure: as §1, §2, §3, §4, §5

[9] = substrate: C=C(Br)CCOP(=O)(O)OP(=O)(O)O; test: as above; assay type: biochemical, Escherichia coli; conditions: other: elongation substrate varied 500 - 0 µM, starter FPP constant 10 µM; 22.0 °C
Procedure: as §1, §2, §3, §4, §5

[10] = substrate: C=C(Cl)CCOP(=O)(O)OP(=O)(O)O; test: as above; assay type: biochemical, Escherichia coli; conditions: other: elongation substrate varied 500 - 0 µM, starter FPP constant 10 µM; 22.0 °C
Procedure: as §1, §2, §3, §4, §5

[11] = substrate: CC(C)=CCC/C(C)=C/COP(=O)(O)OP(=O)(O)O; test: as above; assay type: biochemical, Escherichia coli; conditions: other: starter substrate varied 80 - 0 µM, elongation substrate IPP constant 150 µM, 22°C
Procedure: as §1, §2, §3, §4, §5

[12] = starter substrate varied, IPP constant 150 µM

**Q.** How did the “rel. kcat Km^-1” value [1] turn out when `CC(C)=CCC/C(C)=C/CC/C(C)=C\COP(=O)(O)OP(=O)(O)O` [Z,E-FPP] was run?
**A.** 90%

**Q.** `C=C(Br)CCOP(=O)(O)OP(=O)(O)O` [Br-BPP, 3-Brom-3-Butenyldiphosphat] was tested. Which “Kondensationsschritte / Elongationseinheiten” value (EcUPPS) did it give?
**A.** 2

**Q.** And the “Kondensationen (Reaktionsprodukte)” value (ThkCPT; 10 µM ThkCPT, 110 as starter substrate, room temperature 25°C)?
**A.** mehr als zwei Kondensationen

**Q.** And the kcat [2]?
**A.** 0,0004 s^-1

**Q.** What about the kcat ([1]; elongation substrate varied, starter FPP 10 µM) of the same molecule?
**A.** 0,0004 s^-1

**Q.** Farnesyldiphosphat [FPP] was tested. Which “rel. kcat Km^-1” value [1] did it give?
**A.** 100%

**Q.** And the Km ([1]; starter substrate varied 80 - 0 µM, elongation substrate IPP constant 150 µM, 22°C)?
**A.** 1.8 µM

**Q.** And the kcat [1, 12]?
**A.** 0,5 s^-1

**Q.** And the vmax [1, 12]?
**A.** 17,9 ± 0,4 nkat/mg

**Q.** With `CC(C)=CCC/C(C)=C/CC/C(C)=C/CC/C(C)=C/COP(=O)(O)OP(=O)(O)O` [GGPP, Geranylgeranyldiphosphat] as the molecule, how does the “rel. kcat Km^-1” value [1] read?
**A.** 76%

**Q.** With `CNc1ccccc1C(=O)OC/C(C)=C/CC/C(C)=C/COP(=O)(O)OP(=O)(O)O` [Substrat 110, (2E,6E)-8-O-(N-methyl-2-aminobenzoyl)-3,7-dimethyl-2,6-octandien-1-diphosphat] as the molecule, how does the “Akzeptanz als Startersubstrat der ThkCPT” value (ThkCPT; 65°C) read?
**A.** als Startersubstrat akzeptiert

**Q.** And the “rel. kcat Km^-1” value [1]?
**A.** 4%

B1: Thermococcus kodakaraensis cis-Prenyltransferase (ThkCPT) (Thermococcus kodakarensis KOD1) (protein)
chain: T3 sequence (Q5JGE1 1-264)
notes: made in house; host or cells: E. coli
**Q.** For B1, which Km [3] is on record?
**A.** 14.8 µM

**Q.** And the Vmax [3]?
**A.** 2,0 nKat mg^-1

**Q.** And the kcat [3]?
**A.** 0,07 s^-1

**Q.** And the Km [4]?
**A.** 54,0 +/- 11,1 µM

**Q.** What about the Vmax [4] of the same molecule?
**A.** 0,01 nKat mg^-1

**Q.** What about the Km [5] of the same molecule?
**A.** 21,2+/-2,1 µM

**Q.** What about the Vmax [5] of the same molecule?
**A.** 0,01 nKat mg^-1

B2: E. coli Undecaprenyldiphosphatsynthase (EcUPPS) (Escherichia coli K-12) (protein)
chain: T1 sequence (P60472 1-253)
notes: as for B1
**Q.** How did the Km [6] turn out when B2 was run?
**A.** 5.6 µM

**Q.** And the Vmax [6]?
**A.** 1,9 ± 0,1 nkat/mg

**Q.** What about the kcat [6] of the same molecule?
**A.** 0,1 s^-1

**Q.** What about the kcat/Km [6] of the same molecule?
**A.** 11000 M⁻¹ s⁻¹

**Q.** And the Km [7]?
**A.** 6.5 µM

**Q.** And the Vmax [7]?
**A.** 14,4 nkat mg^-1

**Q.** What about the kcat [7] of the same molecule?
**A.** 0,4 s^-1

**Q.** And the Km [8]?
**A.** 1.9 µM

**Q.** What about the Vmax [8] of the same molecule?
**A.** 14,9 ± 0,3 nkat/mg

**Q.** What about the kcat [8] of the same molecule?
**A.** 0,4 s^-1

**Q.** What about the kcat/Km [8] of the same molecule?
**A.** 223000 M⁻¹ s⁻¹

**Q.** What about the Km [9] of the same molecule?
**A.** 6.4 µM

**Q.** What about the Vmax [9] of the same molecule?
**A.** 0,02 nkat mg^-1

**Q.** What about the Km [10] of the same molecule?
**A.** 3.8 µM

**Q.** And the Vmax [10]?
**A.** 0,03 nkat mg^-1

**Q.** And the Km [11]?
**A.** 48,8 ± 8,3 µM

**Q.** What about the Vmax [11] of the same molecule?
**A.** 11,3 ± 0,7 nkat/mg

**Q.** And the kcat [11]?
**A.** 0,3 s^-1

**Q.** And the kcat/Km [11]?
**A.** 7000 M⁻¹ s⁻¹
